Columns and labels:
KlenTaq polymerase = KlenTaq polymerase (UniProt P19821 P19821:280-832); test: stopped-flow observed k1; 600 nM enzyme, 100 uM dGTP, 50 mM NaCl, 2 mM MgCl2, pH 7.5; conditions: label: 6-FAM on internal T; hairpin
Description: The pre-steady kinetic analysis of Klenow or KlenTaq polymerase for incorporating the cognate nucleotide (dGTP) was monitored following the mixing of 6-carboxyfluorescein (6-FAM) dye label hairpin-DNA template with the enzyme (600 nM) and nucleotide (100 μM) in a reaction buffer containing 50 mM Tris-HCl, pH 7.5, 300 mM NaCl (or 50 mM NaCl in the KlenTaq reaction), 0.5 mM Dithiothreitol and 5 mM MgCl₂ (or 2 mM MgCl₂ in the KlentTaq reaction) in an Applied Photophysics SX20 stopped-flow spectrometer. The 6-FAM hairpin-DNA template was: 5′-[…].[…](6-FAM) CGAG-3′ (SEQ ID NO: 5).

BSU DNA polymerase I = BSU DNA polymerase I (Bacillus subtilis, UniProt O34996 O34996:1-880, second Ser after 6xHis tag replaced by Cys (in tag)); test: stopped-flow fluorescein quenching; correct dCTP signal rises and mismatch dATP signal falls with NaCl 62.5-375 mM; 10 mM MgSO4; conditions: label: fluorescein-dT in primer, 5 bases from incorporation site; primer/template with 5' template overhang
Source text: Theoretically, it was possible to use an enzyme simulation that predicts the feasibility of correct vs. mismatch base discrimination using enzyme-DNA binding kinetics. […] Rapid mixing is generally achieved using a fast delivery and mixing system to minimize the contribution of the diffusion constants to the overall access of the polymerase to the DNA templates. To determine the validity of the theoretical predictions for base discrimination based on DNA binding kinetics, correct (dCTP) and mismatch (dATP) nucleotides were rapidly mixed with BSU polymerase and FAM labeled 19/36 mer in the presence of various NaCl concentrations with a stopped flow instrument. Pre-steady state correct and mismatch nucleotide kinetic responses of polymerase/DNA binding were made by monitoring the extent of induced fluorescence quenching response. Correct and mismatch nucleotide responses were determined from the stopped flow kinetic raw traces (FIG. 23). The traces were normalized and the maximum fluorescence change was determined and subsequently, correlated with the extent of synchronized enzyme-DNA binding. As [NaCl] was increased and the nucleotide concentration was held constant, the fluorescence change for the correct nucleotide (leftmost bar in each pair of bars in FIG. 24B) was increased, while the response for the mismatch (rightmost bar in each pair of bars in FIG. 24B) was decreased. […]

KlenTaq polymerase, sequence (P19821 280-832, one chain of several): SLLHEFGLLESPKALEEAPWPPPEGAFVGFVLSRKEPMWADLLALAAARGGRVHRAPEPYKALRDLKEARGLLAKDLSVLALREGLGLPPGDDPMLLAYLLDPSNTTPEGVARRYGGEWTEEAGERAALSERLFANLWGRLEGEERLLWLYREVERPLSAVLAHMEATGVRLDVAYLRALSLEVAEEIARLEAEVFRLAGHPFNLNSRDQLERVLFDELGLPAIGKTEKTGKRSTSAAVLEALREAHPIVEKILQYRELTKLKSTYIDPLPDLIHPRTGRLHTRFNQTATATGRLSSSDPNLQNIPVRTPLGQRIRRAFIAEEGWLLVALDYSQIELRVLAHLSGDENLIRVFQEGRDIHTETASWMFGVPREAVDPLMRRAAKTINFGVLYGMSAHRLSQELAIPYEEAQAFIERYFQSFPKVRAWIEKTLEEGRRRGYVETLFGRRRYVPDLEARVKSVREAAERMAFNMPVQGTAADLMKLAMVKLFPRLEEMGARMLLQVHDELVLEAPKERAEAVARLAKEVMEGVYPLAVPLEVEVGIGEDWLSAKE

| Binder | binding result (KlenTaq polymerase) | binding result (BSU DNA polymerase I) |
| --- | --- | --- |
| CGTTAGTAACCTCGAGGCAACTTAGCCTCGAG (structured_DNA) [6-FAM hairpin-DNA template] | binds | – |
| 19/36 mer primer/template duplex (FAM-labelled) (dsDNA) DNA 1: GCTTGCACAGGGCCTCGAC DNA 2: CGTTAGTAAGGTCGAGGCCCTGTGCAAGC | – | binds |

Source: patent US20130165328, “APPARATUS AND METHODS FOR KINETIC ANALYSIS AND DETERMINATION OF NUCLEIC ACID SEQUENCES” (ILLUMINA, INC., published 2013)
